Results reported in paper PMC4417188, “Molecular crowding enhances facilitated diffusion of two human DNA glycosylases”.

B1: DN nonspecific 15mer duplex (dsDNA)
DNA 1: AGGCGCATAGTCGCA
DNA 2: TGCGACTATGCGCCT

Legend:
hUNG catalytic domain [1] = target: T1, hUNG catalytic domain (Homo sapiens, UniProt P13051 94-313); test: stopped-flow 2-AP fluorescence (koff/kon); details: 2'-beta-fluoro-2'-deoxyuridine (Ubeta), 2-aminopurine adjacent, paired with T, 20 mM HEPES pH 7.5, 3 mM EDTA, 1 mM DTT, 0.002% Brij 35, 22 mM total Na+, with or without PEG 8K, temperature not stated for binding assays
hUNG catalytic domain [2] = target: T1, hUNG catalytic domain; test: fluorescence anisotropy; 20% PEG 8K; 20 mM HEPES pH 7.5, 3 mM EDTA, 1 mM DTT, 0.002% Brij 35, 22 mM total Na+; with or without PEG 8K; temperature not stated for binding assays; details: protein: recombinant; label: 5'-fluorescein (FAM); (complement implied by Watson-Crick pairing)
hUNG catalytic domain [3] = target: T1, hUNG catalytic domain; test: fluorescence anisotropy; dilute buffer; 20 mM HEPES pH 7.5, 3 mM EDTA, 1 mM DTT, 0.002% Brij 35, 22 mM total Na+; with or without PEG 8K; temperature not stated for binding assays; details: protein: recombinant; label: 5'-fluorescein (FAM); (complement implied by Watson-Crick pairing)

T1 sequence (P13051 94-313): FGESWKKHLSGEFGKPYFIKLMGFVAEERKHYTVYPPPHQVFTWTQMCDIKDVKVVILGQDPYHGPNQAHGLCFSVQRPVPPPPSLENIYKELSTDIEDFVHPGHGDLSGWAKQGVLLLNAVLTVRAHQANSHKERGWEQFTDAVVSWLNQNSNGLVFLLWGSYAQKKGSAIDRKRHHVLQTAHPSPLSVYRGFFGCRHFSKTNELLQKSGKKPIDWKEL

Molecule	Kd (hUNG catalytic domain [1]; 5% PEG 8K) [nM]	Kd (hUNG catalytic domain [1]; 10% PEG 8K) [nM]	Kd (hUNG catalytic domain [1]; 15% PEG 8K) [nM]	Kd (hUNG catalytic domain [1]; 20% PEG 8K, fast phase koff used) [nM]	Kd (hUNG catalytic domain [1]; dilute buffer, text of Methods gives 0.3 nM) [nM]	Kd (hUNG catalytic domain [2]) [nM]	Kd (hUNG catalytic domain [3]) [nM]
DS specific 19mer duplex (2-AP next to Ubeta)	0.31	0.2	0.7	1.2	0.4		
B1						2300 ± 500	1300 ± 500
